{"source": "patent US20230303681A1"}
{"target": "mouse TMEM106B (mouse) (UniProt Q80X71)", "assay": "FACS Neuro2a"}
{"substance": "Negative ctrl #1 (antibody)", "MFI": 220}
{"substance": "Negative ctrl #2 (antibody)", "MFI": 235}
{"substance": "Negative ctrl #3 (antibody)", "MFI": 216}
